No end group written: not given here.
Assays:
[1] = molecular target: T1, HLA-DR1 (DRB1*0101) (human); experiment: competition ELISA, purified HLA II; tracer biotinylated HA 306-318
T1 chain 1: not shown
T1 chain 2: not shown

[2] = molecular target: T2, HLA-DRB4 (DRB4*0101) (human); experiment: competition ELISA, purified HLA II; tracer biotinylated E2/E168
T2 chain 1: not shown
T2 chain 2: not shown

[3] = molecular target: T3, HLA-DR15 (DRB1*1501) (human); experiment: competition ELISA, purified HLA II; tracer biotinylated A3 152-166
T3 chain 1: not shown
T3 chain 2: not shown

[4] = molecular target: T4, HLA-DR3 (DRB1*0301) (human); experiment: competition ELISA, purified HLA II; tracer biotinylated MT 2-16
T4 chain 1: not shown
T4 chain 2: not shown

[5] = molecular target: T5, HLA-DRB5 (DRB5*0101) (human); experiment: competition ELISA, purified HLA II; tracer biotinylated HA 306-318
T5 chain 1: not shown
T5 chain 2: not shown

[6] = molecular target: T6, HLA-DR4 (DRB1*0401) (human); experiment: as above
T6 chain 1: not shown
T6 chain 2: not shown

[7] = molecular target: T7, HLA-DR11 (DRB1*1101) (human); experiment: as above
T7 chain 1: not shown
T7 chain 2: not shown

[8] = molecular target: HLA-DR1 (DRB1*0101) (human); experiment: competition binding; settings: chains peptide; modification not given
[9] = molecular target: T8, HLA-DR7 (DRB1*0701) (human); experiment: competition ELISA, purified HLA II; tracer biotinylated YKL
T8 chain 1: not shown
T8 chain 2: not shown

[10] = molecular target: HLA-DR11 (DRB1*1101) (human); experiment: competition binding; settings: chains peptide; modification not given
[11] = molecular target: HLA-DRB4 (DRB4*0101) (human); experiment: competition binding; settings: chains peptide; modification not given
[12] = molecular target: HLA-DR15 (DRB1*1501) (human); experiment: competition binding; settings: chains peptide; modification not given
[13] = molecular target: HLA-DR4 (DRB1*0401) (human); experiment: competition binding; settings: chains peptide; modification not given
[14] = molecular target: HLA-DR13 (DRB1*1301) (human); experiment: competition binding; settings: chains peptide; modification not given
[15] = molecular target: HLA-DR3 (DRB1*0301) (human); experiment: competition binding; settings: chains peptide; modification not given
[16] = molecular target: T9, HLA-DP401 (DPB1*0401) (human), P20036; experiment: competition binding; settings: chains peptide; modification not given
T9 chain 1: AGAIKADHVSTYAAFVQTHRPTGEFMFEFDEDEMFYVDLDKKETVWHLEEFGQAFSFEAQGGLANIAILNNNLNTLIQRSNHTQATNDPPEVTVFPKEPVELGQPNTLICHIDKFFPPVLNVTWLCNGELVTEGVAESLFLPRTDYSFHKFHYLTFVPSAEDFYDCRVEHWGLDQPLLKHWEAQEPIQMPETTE
T9 chain 2: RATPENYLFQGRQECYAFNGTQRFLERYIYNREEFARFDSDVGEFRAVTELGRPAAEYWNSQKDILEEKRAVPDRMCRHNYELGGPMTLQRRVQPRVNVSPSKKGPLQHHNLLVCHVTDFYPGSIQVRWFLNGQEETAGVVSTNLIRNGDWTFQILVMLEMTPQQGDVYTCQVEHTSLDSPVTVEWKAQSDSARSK

[17] = molecular target: HLA-DP402 (DPB1*0402) (human), P20036; experiment: competition binding; settings: chains peptide; modification not given
[18] = molecular target: HLA-DRB3 (DRB3*0101) (human); experiment: competition binding; settings: chains peptide; modification not given
[19] = molecular target: HLA-DRB5 (DRB5*0101) (human); experiment: competition binding; settings: chains peptide; modification not given
[20] = molecular target: HLA-DR7 (DRB1*0701) (human); experiment: competition binding; settings: chains peptide; modification not given
[21] = molecular target: T10, HLA-DR13 (DRB1*1301) (human); experiment: competition ELISA, purified HLA II; unlabeled peptide against its own biotinylated tracer
T10 chain 1: not shown
T10 chain 2: not shown

## WAGWLLSPRGSRPSW (modifications not checked) [3C 93-107]
[1]
  IC50: 6330 nM

## GCIITSLTGRDKNQV (modifications not checked) [9N 1041-1055]
[2]
  IC50: 65000 nM
[3]
  IC50: 525 nM
[4]
  IC50: 62500 nM
[5]
  IC50: 11 nM
[1]
  IC50: 190 nM
[6]
  IC50: 2900 nM
[7]
  IC50: 2600 nM

## IEEVALSTTGEIPFYGKAIPLEVIKG [22N 1362-1387]
[8]
  IC50: 33 nM

## DAHFLSQTKQSGENL (modifications not checked) [29N 1569-1583]
[9]
  IC50: 3000 nM
[3]
  IC50: 2800 nM
[5]
  IC50: 21000 nM
[1]
  IC50: 950 nM
[6]
  IC50: 10500 nM
[7]
  IC50: 22 nM

## GREILLGPADGMVSKGWRLLAPITAYAQQTR (modifications not checked) [8N 1007-1037]
[10]
  IC50: 1 nM
[11]
  IC50: 60 nM
[12]
  IC50: 30 nM
[13]
  IC50: 10 nM
[14]
  IC50: 1250 nM
[15]
  IC50: 200 nM
[1]
  IC50: 2 nM

## VGGVYLLPRRGPRLGVRATRKTSERSQ [2C 31-57]
[16]
  IC50: > 100000 nM
[17]
  IC50: > 100000 nM

## PQDVKFPGGGQIVGGVYLLPRRGPRLGVR [1C 19-47]
[10]
  IC50: 58 nM
[18]
  IC50: > 100000 nM
[11]
  IC50: 6000 nM
[19]
  IC50: 9 nM
[13]
  IC50: 70000 nM
[15]
  IC50: > 100000 nM
[8]
  IC50: 350 nM

## KNQVEGEVQIVSTAAQTFLAT [10N 1052-1072]
[10]
  IC50: 200 nM
[18]
  IC50: 10000 nM
[20]
  IC50: 7 nM
[11]
  IC50: 400 nM
[8]
  IC50: 400 nM

## AQGYKVLVLNPSVAATLGFGAYMSKAHGID [18N 1246-1275]
[10]
  IC50: 40 nM
[18]
  IC50: > 30000 nM
[16]
  IC50: > 100000 nM
[12]
  IC50: 58 nM
[19]
  IC50: 1250 nM
[13]
  IC50: 5 nM
[14]
  IC50: 900 nM
[8]
  IC50: 1 nM

## TERVRLVTRHIYNREE (not fully specified) [B1 21-36 (nonbiotinylated)]
[21]
  IC50: 330 nM

## SSDLYLVTRHADVIPVRRRGDSRGSLL [13N 1127-1153]
[10]
  IC50: 17 nM
[18]
  IC50: > 10000 nM
[20]
  IC50: 17 nM
[16]
  IC50: > 100000 nM
[19]
  IC50: 500 nM
[13]
  IC50: 3500 nM
[14]
  IC50: 300 nM
[15]
  IC50: > 100000 nM
[8]
  IC50: 700 nM

## AAKLVALGINAVAYYRGLDVSVIPTSGDV [24N 1404-1432]
[16]
  IC50: 32700 nM
[17]
  IC50: 7040 nM

## DPNIRTGVRTITTGSPITYSTYGKFLADGG [19N 1275-1304]
[18]
  IC50: 150 nM
[11]
  IC50: 3500 nM
[12]
  IC50: 550 nM
[13]
  IC50: 500 nM
[14]
  IC50: > 100000 nM
[15]
  IC50: > 100000 nM
[8]
  IC50: 150 nM

## RSPVFTDNSSPPVVPQSFQVAHLHAPTGSGKSTK [17N 1206-1239]
[10]
  IC50: 550 nM
[12]
  IC50: 10000 nM
[19]
  IC50: 350 nM
[13]
  IC50: 425 nM
[14]
  IC50: > 100000 nM

## GHAVGIFRAAVCTRGVAKAVDF [15N 1174-1195]
[16]
  IC50: 17800 nM

## KPGIYRFVAPGERPSGMFD [27N 1495-1513]
[18]
  IC50: 40000 nM
[11]
  IC50: 138 nM
[16]
  IC50: > 100000 nM
[12]
  IC50: 150 nM
[19]
  IC50: 2 nM
[13]
  IC50: 1250 nM
[14]
  IC50: > 100000 nM
[17]
  IC50: > 100000 nM
[15]
  IC50: > 100000 nM
[8]
  IC50: 163 nM

## TRGLLGCIITSLTGRDKNQV (modifications not checked) [9N 1036-1055, P26664 1036-1055]
[9]
  IC50: 2600 nM
[2]
  IC50: 1000 nM
[3]
  IC50: 5500 nM
[5]
  IC50: 53 nM
[1]
  IC50: 51 nM
[6]
  IC50: 950 nM
[7]
  IC50: 700 nM

— patent US20060110401A1, “Mixture of peptides from c and ns3 proteins of the hepatitis c virus and applications thereof” (priority 2002, published 2006)
